According to the supplement of paper PMC5998384:

What was measured:
[1] = test system: HeLa Kyoto; test: solubility in G1/S (NP-40 vs SDS abundance) (log2 ratio); higher = more soluble; conditions: cell cycle stage: G1/S
[2] = test system: HeLa Kyoto; test: solubility change mitosis vs G1/S (difference of NP-40 vs SDS log2 ratios) (log2 ratio difference); higher = more soluble in mitosis
[3] = test system: HeLa Kyoto; test: melting temperature (median over replicates), in situ; higher = more thermally stable
[4] = test system: HeLa Kyoto; test: thermal stability score vs G1/S (z-score of summed log2 fold changes over temperatures); higher = more thermally stable than in G1/S
[5] = cell cycle stage: early G1 (4.5 h after nocodazole release)
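For melting temperature (median over replicates), in situ in this document: HeLa Kyoto cells synchronized by double thymidine or nocodazole block, proteins quantified by TMT10plex mass spectrometry, three independent biological replicates.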
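For solubility change mitosis vs G1/S (difference of NP-40 vs SDS log2 ratios) in this document: synchronized HeLa Kyoto cells (double thymidine block for G1/S, nocodazole release for mitosis), protein amounts in NP-40 versus SDS lysates quantified by mass spectrometry, three biological replicates.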
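For solubility in G1/S (NP-40 vs SDS abundance) in this document: HeLa Kyoto cells arrested at G1/S by double thymidine block, proteins quantified by TMT10plex mass spectrometry in mild NP-40 versus SDS extracts, three biological replicates.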
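For thermal stability score vs G1/S (z-score of summed log2 fold changes over temperatures) in this document: synchronized HeLa Kyoto cells, proteins quantified by TMT10plex mass spectrometry, three biological replicates, mitosis taken 0.5 h after nocodazole release, G1/S directly after double thymidine block.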

Question: For “MALSAQQIPRWFNSVKLRSLINAAQLTKRFTRPARTLLHGFSAQPQISSDNCFLQWGFKTYRTSSLWNSSQSTSSSSQENNSAQSSLLPSMNEQSQKTQNISSFDSELFLEELDELPPLSPMQPISEEEAIQIIADPPLPPASFTLRDYVDHSETLQKLVLLGVDLSKIEKHPEAANLLLRLDFEKDIKQMLLFLKDVGIEDNQLGAFLTKNHAIFSEDLENLKTRVAYLHSKNFSKADVAQMVRKAPFLLNFSVERLDNRLGFFQKELELSVKKTRDLVVRLPRLLTGSLEPVKENMKVYRLELGFKHNEIQHMITRIPKMLTANKMKLTETFDFVHNVMSIPHHIIVKFPQVFNTRLFKVKERHLFLTYLGRAQYDPAKPNYISLDKLVSIPDEIFCEEIAKASVQDFEKFLKTL [MTERF3]”, which “solubility in G1/S (log2)” value [1] is on record?
Answer: 0.238

Question: And the “solubility change mitosis (log2)” value [2]?
Answer: -0.167

Question: And the melting temperature ([3]; cell cycle stage: G1/S)?
Answer: 49.7 °C

Question: What about the melting temperature ([3]; cell cycle stage: mitosis) of the same sequence?
Answer: 50.3 °C

Question: And the thermal stability score [4, 5]?
Answer: -0.741

Question: What about the thermal stability score ([4]; cell cycle stage: mitosis) of the same sequence?
Answer: 0.517

Question: What does the source list for “MALWRGSAYAGFLALAVGCVFLLEPELPGSALRSLWSSLCLGPAPAPPGPVSPEGRLAAAWDALIVRPVRRWRRVAVGVNACVDVVLSGVKLLQALGLSPGNGKDHSILHSRNDLEEAFIHFMGKGAAAERFFSDKETFHDIAQVASEFPGAQHYVGGNAALIGQKFAANSDLKVLLCGPVGPKLHELLDDNVFVPPESLQEVDEFHLILEYQAGEEWGQLKAPHANRFIFSHDLSNGAMNMLEVFVSSLEEFQPDLVVLSGLHMMEGQSKELQRKRLLEVVTSISDIPTGIPVHLELASMTNRELMSSIVHQQVFPAVTSLGLNEQELLFLTQSASGPHSSLSSWNGVPDVGMVSDILFWILKEHGRSKSRASDLTRIHFHTLVYHILATVDGHWANQLAAVAAGARVAGTQACATETIDTSRVSLRAPQEFMTSHSEAGSRIVLNPNKPVVEWHREGISFHFTPVLVCKDPIRTVGLGDAISAEGLFYSEVHPHY [ADPGK]”?
Answer: solubility in G1/S (log2) [1]: -0.0136; solubility change mitosis (log2) [2]: -0.191; melting temperature ([3]; cell cycle stage: G1/S): 55.3 °C; melting temperature ([3]; cell cycle stage: mitosis): 55.4 °C; thermal stability score [4, 5]: 1.05; thermal stability score ([4]; cell cycle stage: mitosis): -1.45

Question: Which “solubility in G1/S (log2)” value [1] does the source give for “MALYQRWRCLRLQGLQACRLHTAVVSTPPRWLAERLGLFEELWAAQVKRLASMAQKEPRTIKISLPGGQKIDAVAWNTTPYQLARQISSTLADTAVAAQVNGEPYDLERPLETDSDLRFLTFDSPEGKAVFWHSSTHVLGAAAEQFLGAVLCRGPSTEYGFYHDFFLGKERTIRGSELPVLERICQELTAAARPFRRLEASRDQLRQLFKDNPFKLHLIEEKVTGPTATVYGCGTLVDLCQGPHLRHTGQIGGLKLLSNSSSLWRSSGAPETLQRVSGISFPTTELLRVWEAWREEAELRDHRRIGKEQELFFFHELSPGSCFFLPRGTRVYNALVAFIRAEYAHRGFSEVKTPTLFSTKLWEQSGHWEHYQEDMFAVQPPGSDRPPSSQSDDSTRHITDTLALKPMNCPAHCLMFAHRPRSWRELPLRLADFGALHRAEASGGLGGLTRLRCFQQDDAHIFCTTDQLEAEIQSCLDFLRSVYAVLGFSFRLALSTRPSGFLGDPCLWDQAEQVLKQALKEFGEPWDLNSGDGAFYGPKIDVHLHDALGRPHQCGTIQLDFQLPLRFDLQYKGQAGALERPVLIHRAVLGSVERLLGVLAESCGGKWPLWLSPFQVVVIPVGSEQEEYAKEAQQSLRAAGLVSDLDADSGLTLSRRIRRAQLAHYNFQFVVGQKEQSKRTVNIRTRDNRRLGEWDLPEAVQRLVELQNTRVPNAEEIF [TARS2]” here?
Answer: 0.0817

Question: And the “solubility change mitosis (log2)” value [2]?
Answer: -0.134

Question: What about the melting temperature ([3]; cell cycle stage: G1/S) of the same sequence?
Answer: 51.4 °C

Question: And the melting temperature ([3]; cell cycle stage: mitosis)?
Answer: 50.8 °C

Question: What about the thermal stability score [4, 5] of the same sequence?
Answer: -1.35

Question: What about the thermal stability score ([4]; cell cycle stage: mitosis) of the same sequence?
Answer: -0.229

Question: “MAMARLGSWLGEAQWLALVSLFVAALATVGLYLAQWALARARPQPQRRAVEPGEGPRPGSDALLSWILTLGSWRSQWQAAWVTALNEEAERKGGPPFLSFEEDPRQQALELVVQEVSSVLRSAEEKVVVCHVVGQAIQFLVSETPALGAGCRLYDMRLSPFHLQLEFHMKEKREDLQISWSFISVPEMAVNIQPKALGEDQVAETSAMSDVLKDILKHLAGSASPSVVLITKPTTVKEAQNLQCAASTAQESCPPKPPRAHELKLLVRNIHVLLLSEPGASGHINAVCVVQLNDPVQRFSSTLTKNTPDLMWEEEFTFELNAKSKELHLQISEAGRSSEGLLATATVPLDLFKKQPSGPQSFTLTSGSACGSSVLGSVTAEFSYMEPGELKSWPIPPPVPAAKIEKDRTVMPCGTVVTTVTAVKTKPRVDVGRASPLSSDSPVKTPIKVKVIEKDISVQAIACRSAPVSKTLSSSDTELLVLNGSDPVAEVAIRQLSESSKLKLKSPRKKSTIIISGISKTSLSQDHDAALMQGYTASVDSTHQEDAPSHPERAAASAPPEEAESAQASLAPKPQEDELDSWDLEKEPQAAAWSSQVLLDPDGDELSESSMSVLEPGTAKKHKGGILRKGAKLFFRRRHQQKDPGMSQSHNDLVFLEQPEGSRRKGITLTRILNKKLLSRHRNKNTMNGAPVEPCT [C2CD2]” was tested. Which “solubility in G1/S (log2)” value [1] did it give?
Answer: 0.0136

Question: What about the “solubility change mitosis (log2)” value [2] of the same sequence?
Answer: 0.0576

Question: And the melting temperature ([3]; cell cycle stage: G1/S)?
Answer: 50.9 °C

Question: And the thermal stability score [4, 5]?
Answer: 0.427

Question: And the thermal stability score ([4]; cell cycle stage: mitosis)?
Answer: 1.24
